Test results from PMC4434323.

These sequences were tested against T1, C07E3.6 (C07E3.6) (Caenorhabditis elegans) (UniProt Q17792).
T1 sequence: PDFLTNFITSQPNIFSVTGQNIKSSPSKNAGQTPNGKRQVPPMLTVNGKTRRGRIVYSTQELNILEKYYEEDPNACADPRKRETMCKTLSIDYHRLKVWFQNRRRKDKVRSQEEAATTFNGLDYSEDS

Sequence	binding signal (PBM E-score (-0.5 to 0.5))
AGTAATTA (double strand) [8-mer AGTAATTA]	0.494
GCTAATTA (double strand) [8-mer GCTAATTA]	0.496

The sequences below were run against T2, C27D6.4 (C27D6.4) (Caenorhabditis elegans) (UniProt Q4JFH9).
T2 sequence: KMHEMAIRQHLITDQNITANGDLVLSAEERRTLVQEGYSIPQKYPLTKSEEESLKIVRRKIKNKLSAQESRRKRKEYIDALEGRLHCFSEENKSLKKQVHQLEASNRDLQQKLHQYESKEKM

Sequence	binding signal (PBM E-score (-0.5 to 0.5))
GCCACGTA (double strand) [8-mer GCCACGTA]	0.497
CACGTGGC (double strand) [8-mer CACGTGGC]	0.499
CCACGTGG (double strand) [8-mer CCACGTGG]	0.499
CCACGTCA (double strand) [8-mer CCACGTCA]	0.496
ACGTGGCT (double strand) [8-mer ACGTGGCT]	0.492
ACGTGGCA (double strand) [8-mer ACGTGGCA]	0.499

What follows are sequences tested against T3, atf-6 (F45E6.2) (Caenorhabditis elegans) (UniProt Q20435).
T3 sequence: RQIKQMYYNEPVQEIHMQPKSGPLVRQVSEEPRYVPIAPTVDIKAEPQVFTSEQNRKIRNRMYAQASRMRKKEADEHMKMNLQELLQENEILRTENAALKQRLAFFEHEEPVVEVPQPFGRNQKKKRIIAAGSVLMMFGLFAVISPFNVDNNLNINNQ

Sequence	binding signal (PBM E-score (-0.5 to 0.5))
ACGTCAGA (double strand) [8-mer ACGTCAGA]	0.476
GCCACGTA (double strand) [8-mer GCCACGTA]	0.48
CCACGTAG (double strand) [8-mer CCACGTAG]	0.478
CACGTGGC (double strand) [8-mer CACGTGGC]	0.464
CCACGTGG (double strand) [8-mer CCACGTGG]	0.48
CCACGTCA (double strand) [8-mer CCACGTCA]	0.488
ACGTGGCT (double strand) [8-mer ACGTGGCT]	0.466
CACGTCAG (double strand) [8-mer CACGTCAG]	0.473
ACGTGGCC (double strand) [8-mer ACGTGGCC]	0.471
ACGTGGCA (double strand) [8-mer ACGTGGCA]	0.477
ACCACGTA (double strand) [8-mer ACCACGTA]	0.457

Each sequence was assayed against atf-7 (C07G2.2) (Caenorhabditis elegans) (UniProt Q86MD3).
atf-7 (C07G2.2) (Caenorhabditis elegans), sequence (Q86MD3 339-508): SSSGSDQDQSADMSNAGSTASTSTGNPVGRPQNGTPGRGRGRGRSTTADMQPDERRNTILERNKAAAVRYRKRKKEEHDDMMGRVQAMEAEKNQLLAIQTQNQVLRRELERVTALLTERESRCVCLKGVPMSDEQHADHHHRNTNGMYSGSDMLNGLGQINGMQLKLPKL

Sequence	binding signal (PBM E-score (-0.5 to 0.5))
CCACGTCA (double strand) [8-mer CCACGTCA]	0.496

Each sequence was assayed against T4, ceh-34 (C10G8.6) (Caenorhabditis elegans) (UniProt Q94165).
T4 sequence: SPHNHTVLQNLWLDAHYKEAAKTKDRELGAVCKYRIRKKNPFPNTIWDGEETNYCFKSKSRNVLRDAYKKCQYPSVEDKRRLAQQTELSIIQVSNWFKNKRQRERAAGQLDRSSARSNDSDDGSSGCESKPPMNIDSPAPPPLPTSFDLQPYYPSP

Sequence	binding signal (PBM E-score (-0.5 to 0.5))
AGGTATCA (double strand) [8-mer AGGTATCA]	0.474
GGGGGATA (double strand) [8-mer GGGGGATA]	0.463
GGTATCAC (double strand) [8-mer GGTATCAC]	0.476
AAGTATCA (double strand) [8-mer AAGTATCA]	0.468
ATTGATAC (double strand) [8-mer ATTGATAC]	0.467
AGGGTATC (double strand) [8-mer AGGGTATC]	0.466
GGGTATCA (double strand) [8-mer GGGTATCA]	0.49
ATATCCCC (double strand) [8-mer ATATCCCC]	0.474
AATGATAC (double strand) [8-mer AATGATAC]	0.461
GAGTATCA (double strand) [8-mer GAGTATCA]	0.46
ATGATACC (double strand) [8-mer ATGATACC]	0.481
GATATCCC (double strand) [8-mer GATATCCC]	0.466
GATACCCC (double strand) [8-mer GATACCCC]	0.48

These sequences were tested on ceh-53 (C09G12.1) (Caenorhabditis elegans).
ceh-53 (C09G12.1) (Caenorhabditis elegans), sequence (chain, as listed by the source): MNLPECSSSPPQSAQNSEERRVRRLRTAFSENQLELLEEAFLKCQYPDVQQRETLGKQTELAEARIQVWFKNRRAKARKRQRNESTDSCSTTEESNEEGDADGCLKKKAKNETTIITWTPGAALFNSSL

Sequence	binding signal (PBM E-score (-0.5 to 0.5))
CGGATTAG (double strand) [8-mer CGGATTAG]	0.496

These sequences were tested against dmd-4 (C27C12.6) (Caenorhabditis elegans) (UniProt Q18248).
dmd-4 (C27C12.6) (Caenorhabditis elegans), sequence (Q18248 1-114): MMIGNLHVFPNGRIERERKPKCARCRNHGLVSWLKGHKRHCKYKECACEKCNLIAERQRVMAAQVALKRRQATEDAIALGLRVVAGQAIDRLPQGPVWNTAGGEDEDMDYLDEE

Sequence	binding signal (PBM E-score (-0.5 to 0.5))
ATTGATAC (double strand) [8-mer ATTGATAC]	0.487
AATGATAC (double strand) [8-mer AATGATAC]	0.482

Each sequence was assayed against T5, elt-6 (F52C12.5) (Caenorhabditis elegans) (UniProt G5EGN3).
T5 sequence: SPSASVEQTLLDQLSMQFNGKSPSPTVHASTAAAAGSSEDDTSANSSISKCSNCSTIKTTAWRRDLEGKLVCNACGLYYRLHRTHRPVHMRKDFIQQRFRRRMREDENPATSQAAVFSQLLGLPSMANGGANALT

Sequence	binding signal (PBM E-score (-0.5 to 0.5))
GTGATAAA (double strand) [8-mer GTGATAAA]	0.491
AGTGATAA (double strand) [8-mer AGTGATAA]	0.495
TCTTATCA (double strand) [8-mer TCTTATCA]	0.495
GTGATAAC (double strand) [8-mer GTGATAAC]	0.492
GCTTATCA (double strand) [8-mer GCTTATCA]	0.493
GGTGATAA (double strand) [8-mer GGTGATAA]	0.494
CTTATCAC (double strand) [8-mer CTTATCAC]	0.496

The sequences below were run against T6, end-1 (F58E10.2) (Caenorhabditis elegans) (UniProt G5EDN4).
T6 sequence: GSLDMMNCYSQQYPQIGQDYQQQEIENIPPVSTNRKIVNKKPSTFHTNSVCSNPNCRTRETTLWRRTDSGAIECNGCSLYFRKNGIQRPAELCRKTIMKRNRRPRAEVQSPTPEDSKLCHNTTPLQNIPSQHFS

Sequence	binding signal (PBM E-score (-0.5 to 0.5))
GATATCGA (double strand) [8-mer GATATCGA]	0.484
CCGATATC (double strand) [8-mer CCGATATC]	0.487
CCGATAAG (double strand) [8-mer CCGATAAG]	0.486
CGATATCG (double strand) [8-mer CGATATCG]	0.496
CGATAAGA (double strand) [8-mer CGATAAGA]	0.487
ATCTAATC (double strand) [8-mer ATCTAATC]	0.487
AGATAAGA (double strand) [8-mer AGATAAGA]	0.484
AGATAAGG (double strand) [8-mer AGATAAGG]	0.484
TATCGATA (double strand) [8-mer TATCGATA]	0.49
GATATCGC (double strand) [8-mer GATATCGC]	0.487
ATCTTATC (double strand) [8-mer ATCTTATC]	0.495
CGATAACG (double strand) [8-mer CGATAACG]	0.483
CCTTATCG (double strand) [8-mer CCTTATCG]	0.486

The sequences below were run against T7, end-3 (F58E10.5) (Caenorhabditis elegans) (UniProt Q9XUW7).
T7 sequence: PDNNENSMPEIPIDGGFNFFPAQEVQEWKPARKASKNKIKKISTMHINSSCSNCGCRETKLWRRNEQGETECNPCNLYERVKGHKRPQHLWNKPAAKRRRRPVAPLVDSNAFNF

Sequence	binding signal (PBM E-score (-0.5 to 0.5))
TCTTATCA (double strand) [8-mer TCTTATCA]	0.491
AGATAAGC (double strand) [8-mer AGATAAGC]	0.493
CTTATCTC (double strand) [8-mer CTTATCTC]	0.496
GGAGATAA (double strand) [8-mer GGAGATAA]	0.49
AGATAACG (double strand) [8-mer AGATAACG]	0.49
GAGATAAC (double strand) [8-mer GAGATAAC]	0.487
AGATAACA (double strand) [8-mer AGATAACA]	0.488
AGAGATAA (double strand) [8-mer AGAGATAA]	0.492
AGATAAGA (double strand) [8-mer AGATAAGA]	0.496
AGATAAGG (double strand) [8-mer AGATAAGG]	0.496
AAGATAAG (double strand) [8-mer AAGATAAG]	0.493
ATCTTATC (double strand) [8-mer ATCTTATC]	0.497
GATAAGAA (double strand) [8-mer GATAAGAA]	0.488
CAGATAAG (double strand) [8-mer CAGATAAG]	0.491
CTTATCTA (double strand) [8-mer CTTATCTA]	0.493

The sequences below were run against T8, med-2 (K04C2.6) (Caenorhabditis elegans) (UniProt G5EF25).
T8 sequence: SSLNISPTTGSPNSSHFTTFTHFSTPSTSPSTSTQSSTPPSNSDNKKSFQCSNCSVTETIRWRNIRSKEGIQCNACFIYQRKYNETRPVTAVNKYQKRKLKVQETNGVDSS

Sequence	binding signal (PBM E-score (-0.5 to 0.5))
GAGTATAC (double strand) [8-mer GAGTATAC]	0.499
GGTATACC (double strand) [8-mer GGTATACC]	0.496
GTATACTA (double strand) [8-mer GTATACTA]	0.499
GGGTATAC (double strand) [8-mer GGGTATAC]	0.496
AGTATACC (double strand) [8-mer AGTATACC]	0.499
AGTATACA (double strand) [8-mer AGTATACA]	0.498
AAAGTATA (double strand) [8-mer AAAGTATA]	0.496
AAGTATAC (double strand) [8-mer AAGTATAC]	0.499
AGTATACT (double strand) [8-mer AGTATACT]	0.5
AGGTATAC (double strand) [8-mer AGGTATAC]	0.496
AGTATACG (double strand) [8-mer AGTATACG]	0.496
GTATACCA (double strand) [8-mer GTATACCA]	0.495
CGGTATAC (double strand) [8-mer CGGTATAC]	0.495
AGTATCCA (double strand) [8-mer AGTATCCA]	0.495
CAGTATAC (double strand) [8-mer CAGTATAC]	0.498
